Test: soluble on expression in E. coli; label from the status in PepcDB or PDB records

Sequence	soluble on expression in E. coli
MGSDKIHHHHHHMKATLKSLRETKANPAVSIFVKTHREHPANDKDPIALKNQLKVVEERLTNEYDKRTATTILDNIHAKTKEHNHNLNLDTLAIFASTDDVQVIRMPIDTTERVVISHRFATRDLVRDMASAVHYYTLVLTRDKARLIEVSNDRVIREFDLDDTAQNNMENIPFPIDNNGLHTTSDGGSDRSANNDSSALKEFFNQVDKSVQELWGEHKMPLVVVGDTKNIGYYKDVCDRPDNIIATVSNATNLEEGSAQHIINSVQEAVEGYRTSLHQAALGEIDKARGANRLQTDLQEVYRSAFQGVGDTLYVRRGYIQPAKIDEKAQTLSLADDSGAEGITDDAIGEIIEHVIHNGGKAVFMPQDIMSEDQPIALVTRY	not soluble
MSLSETASWQPSASIPNLLKRAAIMAEIRRFFADRGVLEVETPCMSQATVTDIHLVPFETRFVGPGHSQGMNLWLMTSPEYHMKRLLVAGCGPVFQLCRSFRNEEMGRYHNPEFTMLEWYRPHYDMYRLMNEVDDLLQQVLDCPAAESLSYQQAFLRYLEIDPLSADKTQLREVAAKLDLSNVADTEEDRDTLLQLLFTFGVEPNIGKEKPTFVYHFPASQASLAQISTEDHRVAERFEVYYKGIELANGFHELTDAREQQQRFEQDNRKRAARGLPQHPIDQNLIEALKVGMPDCSGVALGVDRLVMLALGAETLAEVIAFSVDRAEGHHHHHH	soluble
VFADKLDITVDQKKIILPYWLSRPVSYGAVIIVSGGETAQWSLLLEQFAKGLARNGWSVVLLNCTKNNSIPWINQLPEVISTLRQNNNKRIVLVHYGDQLNLALEYFSKPQSKMINGLVMLSAYDLNRNLQKVPRLRFPLFDIVGQFDYDMVRQQRKSREEKFKENSYLAIDIPGATHDYQYSQQLLLAFVHGWM	not soluble
GPGSMSHSALAYAACPMCTRVVHMGQMLHHILSTHKEQDPAYWMRLCNARLALYERVTGAPLEGTETMRDACLAQATAAVAEAADSEAMVPGGLSLSTPLSTHDALRPFLPTVSETGTYTCNWCALRSVAFSSRDAFLLHVAKDHPKLDFDVVESLVPQPLTVSSRAARNEGTGTPAPRAPAAESDVTVSDSWTRQQRGGAGCVGAASNSHAAEGFDVAYPVRRMPGVRTVQDTNVVTVKPEVHQLGTSVGRVGRNAFDPAPISTGGRRSRAAVSASSTASATAVANDLHFDKDCFPCELCFRVFVSELNLLQHLESKHTNPTTLASVSDASVERAAPPGTASASSTAAASPSSVEVFVVCDRCTDRKKVFRSSSALFSHIRFRHPAEDAAYETERMIEEQRQSRVFQCPHCRYRHPDMTRLDTHMRDAHGVVGCAGEKTIRGGRVVSGTAQPHGSAELKTAQPSLFSALPPVTVRTRFWCSVCEKGFANASALYAHTESKHTTIASLYPCPACKREFRDVPSLESHVQLCHKNLSLKDMGLQSSVECPDCLRHFLNYESLHDHAVRHHGKSAIAPVRSFVTPVSASTAGEGVGVAAAVPVPGTSTDASGSTTSPLAVAAPPKPRKVTRRKKEPSTAATES	not soluble
MGSDKIHHHHHHMVATLAEQIKAEAIALGFDKVGIASVDPPDTEALAALDRWLAQGYQAEMDWMASDRRRDVRNLLPNAQSVICVALNYYSGDHPDPSPEVGKIARYAWGRDYHRVVEKRLKALARWLQTQQPDCECRWYVDSGPIADKVWAQRAGLGWIAKNSNVISREFGSWIFLGELVTTLALPADRPHTAHCGSCSRCLEACPTQAIVEPYVVDANRCIAYHTIENRAADLPAAIAQNLQGWVAGCDICQEVCPWNQRFAQITTLPDLQPRSELLAPALAELATLSEEAWDQQFQGSALRRIKPAMWRRNSRANLRQQSEGNRLS	not soluble
SGQKVTGGIKTVDMRDPTYRPLKQELQGLDYCKPTRLDLLLDMPPVSYDVQLLHSWNNNDRSLNVFVKEDDKLIFHRHPVAQSTDAIRGKVGYTRGLHVWQITWAMRQRGTHAVVGVATADAPLHSVGYTTLVGNNHESWGWDLGRNRLYHDGKNQPSKTYPAFLEPDETFIVPDSFLVALDMDDGTLSFIVDGQYMGVAFRGLKGKKLYPVVSAVWGHCEIRMRYLNGLDPEPLPLMDLCRRSVRLALGRERLGEIHTLPLPASLKAYLLYQ	soluble
MKLSKDTIAILKNFASINSGILLSQGKFIMTRAVNGTTYAEANISDEIDFDVALYDLNSFLSILSLVSDDAEISMHTDGNIKIADTRSTVYWPAADKSTIVFPNKPIQFPVASVITEIKAEDLQQLLRVSRGLQIDTIAITNKDGKIVINGYNKVEDSGLTRPKYSLTLTDYDGSNNFNFVINMANMKIQPGNYKVMLWGAGDKVAAKFESSQVSYVIAMEADSTHDF	soluble
SPGNRENKEKKVFISLVGSRGLGCSISSGPIQKPGIFISHVKPGSLSAEVGLEIGDQIVEVNGVDFSNLDHKEAVNVLKSSRSLTISIVAAAGRELFMTDR	soluble
MIKTLKEHTKIVRSVTFSPNGKYLAVGDICGTVEIWRVL	soluble
MIILQANKIERSFAGEVLFDNINLQVDERDRIALVGKNGAGKSTLLKILVGEEEPTSGEINKKKDISLSYLAQDSRFESENTIYDEMLHVFNDLRRTERQLRQMELEMGEKSGEDLDKLMSDYDRLSENFRQAGGFTYEADIRAILNGFKFDESMWQMKIAELSGGQNTRLALAKMLLEKPNLLVLDEPTNHLDIETIAWLENYLVNYSGALIIVSHDRYFLDKVATITLDLTKHSLDRYVGNYSRFVELKEQKLVTEAKNYEKQQKEIAALEDFVNRNLVRASTTKRAQSRRKQLEKMERLDKPEAGKKSANMTFQSEKTSGNVVLTVENAAVGYDGEVLSQPINLDLRKMNAVAIVGPNGIGKSTFIKSIVDQIPFIKGEKRFGANVEVGYYDQTQSKLTPSNTVLDELWNDFKLTPEVEIRNRLGAFLFSGDDVKKSVGMLSGGEKARLLLAKLSMENNNFLILDEPTNHLDIDSKEVLENALIDFDGTLLFVSHDRYFINRVATHVLELSENGSTLYLGDYDYYVEKKATAEMSQTEEASTSNQAKEASPVNDYQAQKESQKEVRKLMRQIESLEAEIEELESQSQAISEQMLETNDADKLMELQAELDKISHRQEEAMLEWEELSEQV	not soluble
MDFSEASTSGDRVNGFAKPFPPKPREGAPPPAPPLAPGASTSQAPPPLQPPPVIESAEKFYVPGVEEKSKFRILSQQVEISNLNISTRSFNVRTEIVLLPCEKSLYQLDLHIGKCSLLPNEVPGSASKVTLNGVECEYSRRDFWKDLAQEKSISSLEPVLYEKLAENDYELQILIPKEVRKKIKHRKAVRLRVDTVVRDPPRGLQFVDFNEHDCHVFTYHTPHISGAREWTVCLDEPDQLALWELTFELEPHLVPVASGELEEKREVSENGKIRYKFHQTVPTSACNIGWAIGRFKLEPHPESPTIYTFSLPGLEPFVNHTTMYLDKMVEFLEEKLSCRFPYPTLKVVFVDQCTEEIQVYSSLLIVPTAMLYHKKIIDVVQEARQKLIFSIALQFFGCLISPAQWWHWWIPVSIARFLTSLYVETKLGTAEARWQLKRAMDDVCDYEHQWGKIVLSPPEPTKKLPLHVDPRHEYTASPLYVEAMLKKGFLTMRMLQRRIGLEPFMRVLHRVLTVGLDMSEKKTTPAAWRHLLTTTESFFRSVISVTGKEIPSFLSQFVRTGGHAAFAVKFDFNRKRNIVEIEIKQDDTEGNGRTQYTGPLSVVVQEVDGAFTHTIQIDGAVSHAEISCHSKGRKQRKKKVPLLTGEEIEIDLTNMDAESPILWLRIDPDYLLIREITISQPMFHWEYMLRYERDVIAQMEALERIQALPSAHSRSVIVDAVANEKFFYRIRYRAAFVLTFVQNRKSEALTVGTPVLINMFRESFGSKAATNIPRSNNFVVTAQNLQQYFVMQALPQAIARLRRQSGECHEDVQPFLLDLIKFNDNSTNRYSDDFYRAALYNSLASSVFPHDALPCHVELPENLSNDVRVLIKEFTYALNMDTVSPSWGRVVGAAALTGLYQLQKCGYLPLDSQLLWTFSHPNCCVQMRRCAITLIIDRIVNDPHAADTRMLDLSRILELAELEQDPSIRRMIPRLLAQTPPTIFGSENAANTAETAERLWKLCTNSSIDSCIRSGFLDVYYSLYALGAPPALGGPEESVGIHRAYVTVPNAASTFATSQWHNSGYEAARRSPPRRDFGDETMNLMQ	soluble
AEEPTGVFLKKPDSVSVETGKDAVVVAKVNGKELPDKPTIKWFKGKWLELGSKSGARFSFKESHNSASNVYTVELHIGKVVLGDRGYYRLEVKAKDTCDSCGFNIDVEAPR	soluble
MAEHDITPEVTISKTQRRYKVGYVRARHQDRKTGIARYYSQHPSLHLKGDWLKEAGFDTGRGVTVKISEGGLTIIADSDEVQELRDGMFSVLNES	not soluble

Source: the DeepSol protein solubility set
